From patent US20240376151A1, “STAPLED PEPTIDES AND METHODS THEREOF” (FOG PHARMACEUTICALS, INC., priority 2022, published 2024)
Numbered stars: 1 amine (or outer) side, 2 acyl side, 3 side chain; on linkers, the order of the positions; unused ones are H or OH. Bridge positions count the residues as written; N and C are the ends. Ends that are not written are not given here. Phenylene(1,4-NHCOCH2)2 = O=C(C[*:1])Nc1ccc(NC(=O)C[*:2])cc1; 8‑residue Gly‑rich linker = not defined here

Key:
[1] = molecular target: MDM2 p53-binding domain + beta-catenin Armadillo domain (the two proteins bridged in the ternary complex) (human) (UniProt Q00987); assay: direct FP, ternary complex of β-catenin (Armadillo domain) and MDM2 (p53-binding domain)
Chain of MDM2 p53-binding domain + beta-catenin Armadillo domain (the two proteins bridged in the ternary complex) (human) (Q00987 17-111, chain 1 of 2): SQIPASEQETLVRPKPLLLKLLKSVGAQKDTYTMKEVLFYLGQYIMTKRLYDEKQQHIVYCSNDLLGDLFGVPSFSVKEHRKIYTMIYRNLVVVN
Chain of MDM2 p53-binding domain + beta-catenin Armadillo domain (the two proteins bridged in the ternary complex) (human) (chain, as listed by the source, chain 2 of 2): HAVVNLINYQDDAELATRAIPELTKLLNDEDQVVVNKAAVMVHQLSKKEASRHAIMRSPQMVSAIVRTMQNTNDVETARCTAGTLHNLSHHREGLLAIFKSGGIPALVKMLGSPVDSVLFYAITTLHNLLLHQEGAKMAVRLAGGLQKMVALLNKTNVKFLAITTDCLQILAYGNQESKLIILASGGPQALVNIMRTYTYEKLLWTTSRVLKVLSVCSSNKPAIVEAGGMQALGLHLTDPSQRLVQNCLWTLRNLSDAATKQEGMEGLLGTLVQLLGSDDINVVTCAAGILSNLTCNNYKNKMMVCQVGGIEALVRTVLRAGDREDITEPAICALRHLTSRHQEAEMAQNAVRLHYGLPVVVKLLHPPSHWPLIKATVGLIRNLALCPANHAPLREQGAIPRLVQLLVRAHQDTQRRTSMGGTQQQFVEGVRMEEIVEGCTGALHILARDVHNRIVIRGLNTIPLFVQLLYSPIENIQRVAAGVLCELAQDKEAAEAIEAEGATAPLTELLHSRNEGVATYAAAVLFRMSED

[2] = molecular target: human PD-L1 (residues 18-239) with C-terminal human IgG Fc-Avi tag (human), Q9NZQ7; assay: SPR
Chain of human PD-L1 (residues 18-239) with C-terminal human IgG Fc-Avi tag (human), Q9NZQ7 (Q9NZQ7 18-239): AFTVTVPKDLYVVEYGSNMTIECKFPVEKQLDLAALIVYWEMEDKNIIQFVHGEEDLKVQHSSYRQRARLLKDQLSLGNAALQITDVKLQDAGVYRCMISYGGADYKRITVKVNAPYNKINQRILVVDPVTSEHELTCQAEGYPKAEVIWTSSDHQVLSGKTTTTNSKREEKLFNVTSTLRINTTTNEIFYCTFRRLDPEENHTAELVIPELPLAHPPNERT

[3] = molecular target: RNF31 PUB domain protein (residues 1-179), biotinylated (Homo sapiens (Human)) (UniProt Q96EP0); assay: phage display screen on bead-immobilized RNF31 PUB, NGS
Chain of RNF31 PUB domain protein (residues 1-179), biotinylated (Homo sapiens (Human)) (Q96EP0 1-179): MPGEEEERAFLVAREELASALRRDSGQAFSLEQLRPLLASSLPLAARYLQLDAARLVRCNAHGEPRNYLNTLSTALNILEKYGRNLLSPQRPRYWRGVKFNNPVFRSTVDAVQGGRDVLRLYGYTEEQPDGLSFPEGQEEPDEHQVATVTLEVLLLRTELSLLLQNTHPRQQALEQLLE

[4] = molecular target: VHL-ELOBC (human), P40337; assay: phage display screen, NGS; column head 300 nM (row is one cell short of the head, alignment unsure)
Chain of VHL-ELOBC (human), P40337 (P40337 54-213 limits assumed, chain 1 of 3): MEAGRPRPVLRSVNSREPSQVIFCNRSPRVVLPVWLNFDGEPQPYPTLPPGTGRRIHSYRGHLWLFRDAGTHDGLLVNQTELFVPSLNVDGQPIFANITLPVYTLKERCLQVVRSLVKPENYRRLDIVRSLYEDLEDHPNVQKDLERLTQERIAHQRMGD
Chain of VHL-ELOBC (human), P40337 (Q15370 1-104 limits assumed, chain 2 of 3, further chain): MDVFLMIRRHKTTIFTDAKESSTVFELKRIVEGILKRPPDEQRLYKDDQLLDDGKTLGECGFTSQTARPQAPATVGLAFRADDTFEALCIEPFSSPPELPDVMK
Chain of VHL-ELOBC (human), P40337 (Q15369 17-112 limits assumed, chain 3 of 3, further chain): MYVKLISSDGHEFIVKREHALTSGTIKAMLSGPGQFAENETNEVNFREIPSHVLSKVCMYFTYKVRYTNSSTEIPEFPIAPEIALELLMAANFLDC

[5] = molecular target: T1, CUL1 N-terminal domain (residues 15-410, V367R/L371D) (human), Q13616; assay: phage display screen, bead-bound target, spike-in-normalized NGS; target 30 nM
[6] = molecular target: T1, CUL1 N-terminal domain (residues …); assay: phage display screen, bead-bound target, spike-in-normalized NGS; target 10 nM
[7] = molecular target: T1, CUL1 N-terminal domain (residues …); assay: phage display screen, bead-bound target, spike-in-normalized NGS; target 100 nM
[8] = molecular target: T1, CUL1 N-terminal domain (residues …); assay: phage display screen, bead-bound target, spike-in-normalized NGS; target 300 nM
[9] = molecular target: T1, CUL1 N-terminal domain (residues …); assay: phage display screen, bead-bound target, spike-in-normalized NGS; target 1000 nM
[10] = molecular target: T1, CUL1 N-terminal domain (residues …); assay: phage display screen, bead-bound target, spike-in-normalized NGS; target 1000 nM (second column)

B1: H329 (peptide)
peptide: Ac-PMEQQAICFQAAWMCLADDWT-NH2
modifications: bridge 8-15; not fully specified (bridges); printed as Ac-PMEQQAICFQAAWMCLADDWT-NH2
Q: Which EC50 [1] does the source give for B1 here?
A: 0.014 µM

B2: FP30790 (peptide)
peptide: DPAAADCQWAAFLCRVY
modifications: not checked
Q: With B2 as the binder, how does the Kd [2] read?
A: 10 µM

B3: … (Cluster C49 phage-displayed stapled peptide) (peptide, not shown: large carriers)
peptide: DPAHILCEMAARNCLYN-{8‑residue Gly‑rich linker-M13 pIII}
modifications: linker 7-14 via Phenylene(1,4-NHCOCH2)2 (inferred); reading uncertain
Q: Which normalized phage count at Target Concentration 10 (normalized phage counts) [3] does the source give for B3 here?
A: 3

Q: And the normalized phage count at Target Concentration 30 (normalized phage counts) [3]?
A: 1

Q: And the normalized phage count at Target Concentration 100 (normalized phage counts) [3]?
A: 1

Q: And the normalized phage count at Target Concentration 300 (normalized phage counts) [3]?
A: 1

Q: What about the normalized phage count at Target Concentration 1000 (normalized phage counts) [3] of the same binder?
A: 10

Q: What about the normalized phage count at Target Concentration 1000 (second column) (normalized phage counts) [3] of the same binder?
A: 2

B4: … (Cluster C49 phage-displayed stapled peptide) (peptide, not shown: large carriers)
peptide: DPADWTCVLAAHNCLYT-{8‑residue Gly‑rich linker-M13 pIII}
modifications: linker 7-14 via Phenylene(1,4-NHCOCH2)2 (inferred); reading uncertain
Q: How did the normalized phage count at Target Concentration 10 (normalized phage counts) [3] turn out when B4 was run?
A: 0

Q: What about the normalized phage count at Target Concentration 30 (normalized phage counts) [3] of the same binder?
A: 0

Q: What about the normalized phage count at Target Concentration 100 (normalized phage counts) [3] of the same binder?
A: 0

Q: And the normalized phage count at Target Concentration 300 (normalized phage counts) [3]?
A: 1

Q: And the normalized phage count at Target Concentration 1000 (normalized phage counts) [3]?
A: 3

Q: And the normalized phage count at Target Concentration 1000 (second column) (normalized phage counts) [3]?
A: 9

B5: … (peptide)
peptide: DPAWWHCVAAATQCDQR
modifications: not checked
Q: For B5, which phage count (normalised phage counts) [4] is on record?
A: 79

B6: … (peptide)
peptide: DPAWYACVDAAYFCDYQ
modifications: not checked
Q: For B6, which phage count (normalised phage counts) [4] is on record?
A: 35

B7: … (peptide)
peptide: DPAWWHCVDAALQCDYY
modifications: not checked
Q: How did the phage count (normalised phage counts) [4] turn out when B7 was run?
A: 40

B8: phage-displayed Helicon … (peptide)
peptide: DPAVMECDWAATICDIF
modifications: not checked
Q: What does the source list for B8?
A: normalized phage count (normalized counts) [5]: 2; normalized phage count (normalized counts) [6]: 0; normalized phage count (normalized counts) [7]: 154; normalized phage count (normalized counts) [8]: 402; normalized phage count (normalized counts) [9]: 477; normalized phage count (normalized counts) [10]: 419
